The supplement of paper PMC11246515
± gives the standard deviation of the averaged measurements.

Assay: total protein half-life in vivo (active degradation + dilution); higher = more stable protein
[1] = E. coli NCM3722 delta-clpP delta-lon delta-hslV, growth: N-lim chemostat, doubling time 6 h
[2] = E. coli NCM3722 delta-smpB, growth: N-lim chemostat, doubling time 6 h
[3] = wild type E. coli NCM3722, growth: C-lim chemostat, doubling time 3 h
[4] = wild type E. coli NCM3722, growth: C-lim chemostat, doubling time 6 h
[5] = wild type E. coli NCM3722, growth: C-lim chemostat, doubling time 12 h
[6] = E. coli NCM3722 delta-clpP, growth: N-lim chemostat, doubling time 6 h
[7] = E. coli NCM3722 delta-hslV, growth: N-lim chemostat, doubling time 6 h
[8] = E. coli NCM3722 delta-lon, growth: N-lim chemostat, doubling time 6 h
[9] = wild type E. coli NCM3722, growth: N-lim chemostat, doubling time 6 h
[10] = wild type E. coli NCM3722, growth: N-lim chemostat, doubling time 12 h
[11] = wild type E. coli NCM3722, growth: P-lim chemostat, doubling time 6 h
[12] = wild type E. coli NCM3722, growth: P-lim chemostat, doubling time 12 h

| Sequence | total protein half-life in vivo [1] [h] | total protein half-life in vivo [2] [h] | total protein half-life in vivo [3] [h] | total protein half-life in vivo [4] [h] | total protein half-life in vivo [5] [h] | total protein half-life in vivo [6] [h] | total protein half-life in vivo [7] [h] | total protein half-life in vivo [8] [h] | total protein half-life in vivo [9] [h] | total protein half-life in vivo [10] [h] | total protein half-life in vivo [11] [h] | total protein half-life in vivo [12] [h] |
| --- | --- | --- | --- | --- | --- | --- | --- | --- | --- | --- | --- | --- |
| MSDMNNPADDNNGAMDDLWAEALSEQKSTSSKSAAETVFQQFGGGDVSGTLQDIDLIMDIPVKLTVELGRTRMTIKELLRLTQGSVVALDGLAGEPLDILINGYLIAQGEVVVVADKYGVRITDIITPSERMRRLSR | 5.45 ± 0.45 | > 8 | 2.75 ± 0.5 | 4.23 ± 0.055 | 7.08 ± 1.4 | – | – | – | – | – | – | – |
| MSDNAQLTGLCDRFRGFYPVVIDVETAGFNAKTDALLEIAAITLKMDEQGWLMPDTTLHFHVEPFVGANLQPEALAFNGIDPNDPDRGAVSEYEALHEIFKVVRKGIKASGCNRAIMVAHNANFDHSFMMAAAERASLKRNPFHPFATFDTAALAGLALGQTVLSKACQTAGMDFDSTQAHSALYDTERTAVLFCEIVNRWKRLGGWPLSAAEEV | 5.4962 ± 0.0014 | – | 2.54 | 5.95 ± 0.48 | – | 5.43 ± 0.51 | 5.13 | 6.1 | 5.89 | 8.59 | 5.17 | 12 ± 0.56 |
| MSDNDTIVAQATPPGRGGVGILRISGFKAREVAETVLGKLPKPRYADYLPFKDADGSVLDQGIALWFPGPNSFTGEDVLELQGHGGPVILDLLLKRILTIPGLRIARPGEFSERAFLNDKLDLAQAEAIADLIDASSEQAARSALNSLQGAFSARVNHLVEALTHLRIYVEAAIDFPDEEIDFLSDGKIEAQLNDVIADLDAVRAEARQGSLLREGMKVVIAGRPNAGKSSLLNALAGREAAIVTDIAGTTRDVLREHIHIDGMPLHIIDTAGLREASDEVERIGIERAWQEIEQADRVLFMVDGTTTDAVDPAEIWPEFIARLPAKLPITVVRNKADITGETLGMSEVNGHALIRLSARTGEGVDVLRNHLKQSMGFDTNMEGGFLARRRHLQALEQAAEHLQQGKAQLLGAWAGELLAEELRLAQQNLSEITGEFTSDDLLGRIFSSFCIGK | 5.13 ± 0.69 | 4.68 ± 0.25 | 3.43 ± 0.63 | 5.46 ± 0.16 | 10.2 ± 5 | 5.57 ± 0.62 | 4.91 ± 0.24 | 5.72 ± 0.4 | 5.14 ± 0.12 | 8.32 ± 0.99 | 5.69 ± 0.32 | 11.7 ± 0.24 |
| MSDNLPWKTWTPDDLAPPQAEFVPIVEPEETIIEEAEPSLEQQLAQLQMQAHEQGYQAGIAEGRQQGHKQGYQEGLAQGLEQGLAEAKSQQAPIHARMQQLVSEFQTTLDALDSVIASRLMQMALEAARQVIGQTPTVDNSALIKQIQQLLQQEPLFSGKPQLRVHPDDLQRVDDMLGATLSLHGWRLRGDPTLHPGGCKVSADEGDLDASVATRWQELCRLAAPGVV | – | – | 2.19 ± 0.17 | 3.64 ± 0.27 | 5.33 ± 0.28 | – | – | – | – | – | – | – |
| MSDQIIARVSQSLAKEQSLESLVRQLLEMLEMVTDMESTYLTKVDVEARLQHIMFARNSQKMYIPENFTVSWDYSLCKRAIDENCFFSDEVPDRWGDCIAARNLGITTFLSTPIHLPDGSFYGTLCAASSEKRQWSERAEQVLQLFAGLIAQYIQKEALVEQLREANAALIAQSYTDSLTGLPNRRAIFENLTTLFSLARHLNHKIMIAFIDLDNFKLINDRFGHNSGDLFLIQVGERLNTLQQNGEVIGRLGGDEFLVVSLNNENADISSLRERIQQQIRGEYHLGDVDLYYPGASLGIVEVDPETTDADSALHAADIAMYQEKKHKQKTPFVAHPALHS | – | – | 0.233 | – | – | – | – | – | – | – | – | – |
| MSDQQQPPVYKIALGIEYDGSKYYGWQRQNEVRSVQEKLEKALSQVANEPITVFCAGRTDAGVHGTGQVVHFETTALRKDAAWTLGVNANLPGDIAVRWVKTVPDDFHARFSATARRYRYIIYNHRLRPAVLSKGVTHFYEPLDAERMHRAAQCLLGENDFTSFRAVQCQSRTPWRNVMHINVTRHGPYVVVDIKANAFVHHMVRNIVGSLMEVGAHNQPESWIAELLAAKDRTLAAATAKAEGLYLVAVDYPDRYDLPKPPMGPLFLAD | 5.48 ± 0.18 | 5.64 ± 0.47 | – | – | 11.8 ± 2.3 | 4.85 ± 0.48 | 3.92 | 5.08 ± 0.086 | 5.31 ± 0.53 | 8.71 ± 1.2 | 5.81 ± 0.58 | 11.6 ± 0.43 |
| MSDTKRNTIGKFGLLSLTFAAVYSFNNVINNNIELGLASAPMFFLATIFYFIPFCLIIAEFVSLNKNSEAGVYAWVKSSLGGRWAFITAYTYWFVNLFFFTSLLPRVIAYASYAFLGYEYIMTPVATTIISMVLFAFSTWVSTNGAKMLGPITSVTSTLMLLLTLSYILLAGTALVGGVQPADAITVDAMIPNFNWAFLGVTTWIFMAAGGAESVAVYVNDVKGGSKSFVKVIILAGIFIGVLYSVSSVLINVFVSSKELKFTGGSVQVFHGMAAYFGLPEALMNRFVGLVSFTAMFGSLLMWTATPVKIFFSEIPEGIFGKKTVELNENGVPARAAWIQFLIVIPLMIIPMLGSNTVQDLMNTIINMTAAASMLPPLFIMLAYLNLRAKLDHLPRDFRMGSRRTGIIVVSMLIAIFAVGFVASTFPTGANILTIIFYNVGGIVIFLGFAWWKYSKYIKGLTAEERHIEATPASNVD | – | – | – | 3.83 | – | – | – | – | – | – | – | – |
| MSEALLNAGRQTLMLELQEASRLPERLGDDFVRAANIILHCEGKVVVSGIGKSGHIGKKIAATLASTGTPAFFVHPAEALHGDLGMIESRDVMLFISYSGGAKELDLIIPRLEDKSIALLAMTGKPTSPLGLAAKAVLDISVEREACPMHLAPTSSTVNTLMMGDALAMAVMQARGFNEEDFARSHPAGALGARLLNKVHHLMRRDDAIPQVALTASVMDAMLELSRTGLGLVAVCDAQQQVQGVFTDGDLRRWLVGGGALTTPVNEAMTVGGTTLQSQSRAIDAKEILMKRKITAAPVVDENGKLTGAINLQDFYQAGII | 5.02 ± 0.39 | 4.33 ± 0.28 | 3.14 ± 0.043 | 5.34 ± 0.49 | 9.87 ± 2.3 | 4.77 ± 0.57 | 4.52 ± 0.3 | 4.85 ± 0.39 | 4.55 ± 0.18 | 7.014 ± 0.018 | 5.2 ± 0.36 | 12.3 ± 0.49 |
| MSEFDAQRVAERIDIVLDILVAGDYHSAIHNLEILKAELLRQVAESTPDIPKAPWEI [A5A614] | > 8 | 2.71 | – | 3.77 ± 0.23 | – | – | – | – | – | – | 3.58 | – |
| MSEFSQTVPELVAWARKNDFSISLPVDRLSFLLAVATLNGERLDGEMSEGELVDAFRHVSDAFEQTSETIGVRANNAINDMVRQRLLNRFTSEQAEGNAIYRLTPLGIGITDYYIRQREFSTLRLSMQLSIVAGELKRAADAAEEGGDEFHWHRNVYAPLKYSVAEIFDSIDLTQRLMDEQQQQVKDDIAQLLNKDWRAAISSCELLLSETSGTLRELQDTLEAAGDKLQANLLRIQDATMTHDDLHFVDRLVFDLQSKLDRIISWGQQSIDLWIGYDRHVHKFIRTAIDMDKNRVFAQRLRQSVQTYFDEPWALTYANADRLLDMRDEEMALRDEEVTGELPEDLEYEEFNEIREQLAAIIEEQLAVYKTRQVPLDLGLVVREYLSQYPRARHFDVARIVIDQAVRLGVAQADFTGLPAKWQPINDYGAKVQAHVIDKY | 5.86 ± 0.58 | 5.246 ± 0.022 | 3.2 ± 0.06 | 5.42 ± 0.67 | 9.64 ± 0.19 | 6.12 ± 0.39 | 5.79 ± 0.81 | 5.07 ± 0.54 | 5.36 ± 0.55 | 7.76 ± 0.8 | 5.7 ± 0.13 | 8.345 ± 0.032 |
